Measurements as given in publication PMC12700550, “DLL4^+ neutrophils promote Notch1-mediated endothelial PANoptosis to exacerbate acute lung injury in sepsis” (The Journal of Clinical Investigation, 2025).
“And” between values parts separate entries of the source, which are not always exact repeats. Equal entries are not always repeated.

Tests used:
p-MLKL = assay: p-MLKL/MLKL (necroptosis) in PVECs cocultured with neutrophils, Western blot; assay type: cell-based, mouse; details: for p-MLKL/MLKL (Figure 4I): 10 μM peptide, 16 h, individual replicates
Procedure: Wild-type PVECs (5 × 10^5) were cocultured with sorted DLL4^+ neutrophils (5 × 10^5) or DLL4^– neutrophils (5 × 10^5) and then treated with different dosages of peptides or 10 μM DAPT (Thermo Fisher Scientific), 10 μM NDI (GenScript), or 10 μM NDI scramble (GenScript). Notch1-knockdown PVECs (5 × 10^5) were cocultured with sorted DLL4^+ neutrophils (5 × 10^5). After 16 hours, neutrophils were washed away by PBS, and PVECs were collected for further experiments. Cell viability was evaluated by propidium iodide staining using the FITC Annexin V Apoptosis Detection Kit I (catalog 556547, BD Pharmingen). Cell death was quantified as the percentage of propidium iodide–positive cells by flow cytometry.
PVECs and lung tissue were collected in previous steps. Whole-cell proteins were extracted, and the protein concentration was measured using an ABC protein assay kit (catalog 5000002, Bio-Rad). Proteins were separated using NuPAGE 4%–12% Bis-Tris gels (Invitrogen), transferred to PVDF membranes, and immunoblotted with the antibodies indicated in the figure legends according to the manufacturer’s recommendations. The ZBP1 antibody (catalog PA5-20455; 1:1,000) used in this study was obtained from Thermo Fisher Scientific, and the c-GSDMD (catalog 10137S; 1:250), GSDMD (catalog 39754S; 1:1000), c-caspase-3 (catalog 9661L; 1:250), caspase-3 (catalog 9662S; 1:1,000), p-MLKL (catalog 37333S; 1:250), MLKL (catalog 37705S; 1:1,000), N1ICD (c-Notch1) (catalog 4147S; 1:250), and Notch1 (catalog 3608S; 1:1,000) antibodies were obtained from Cell Signaling Technology. GAPDH (catalog 60004-1-Ig; 1:10,000) and β-actin (catalog A5441, Sigma-Aldrich; 1:5,000) were obtained from ProteinTech. After the blots were incubated with primary antibodies, the membranes were washed 3 times, and the blots were subsequently incubated with the corresponding fluorescent secondary antibody (LI-COR). Bands were detected using an Odyssey FC Dual-Mode Imaging system 2800 (LI-COR).

ZBP1 = ZBP1 mRNA in lungs of CLP mice, RT-PCR; assay type: in vivo, mouse; details: 20 h; for lung ZBP1 mRNA (Figure 5A): 10 mg/kg NDI retro-orbital, vs sham, individual mice, 10 mg/kg
Procedure: Sepsis was induced in mice by cecal ligation and puncture (CLP) as described previously ([45], [46]). Mice were anesthetized with isoflurane to a surgical plane and placed in a supine position. CLP was performed through a midline laparotomy. The abdomen was shaved and disinfected. Through a 2 cm midline incision, the cecum was exposed and then ligated with a 4-0 silk suture 1 cm proximal from the distal cecal extremity. For 20-hour CLP experiments, the cecum was punctured twice with a 22-gauge needle. A small amount of cecal content was extruded through both holes, and the ligated cecum was returned to the peritoneal cavity. The wound was closed in layers. For 10-day sepsis survival studies, the cecum was punctured once with a 22-gauge needle. A small amount of cecal content was extruded. Mice were allocated to the vehicle and adoptive transfer of DLL4^+ neutrophils or DLL4^– neutrophils groups. Adoptive transfer mice received a retro-orbital injection of 1 × 10^6 cells per mouse DLL4^+ neutrophils or DLL4^– neutrophils in […] phosphate-buffered saline (PBS) immediately after abdominal closure in both the 20-hour experiments and the survival study. Vehicle groups received an equivalent volume of PBS, while treatment groups received NDI 10 mg/kg in […] PBS via retro-orbital injection after CLP. This dose was chosen primarily on the basis of our laboratory’s prior experience, we have consistently used this dose in mouse CLP models with reproducible efficacy and without observable toxicity ([39], [44]). Sham-operated animals underwent a laparotomy without CLP. After closure, the mice received a subcutaneous injection of 0.5 mL of normal saline to overcome surgery-induced dehydration. For 20-hour experiments, animals were not injected with antibiotics; however, for survival studies, animals were given 0.5 mg per kg body weight imipenem (lot 4D21K05, WG Critical Care LLC) subcutaneously in 0.5 mL saline once at the end of CLP. All mice were subcutaneously injected with a single dose of 0.1 mg/kg buprenorphine after CLP. […]

DLL4 = DLL4 mRNA in eCIRP-treated BMDNs, qPCR; assay type: cell-based, mouse; details: for DLL4 mRNA: DLL4-CIRP
Procedure: mRNA was extracted from lung tissues with TRIzol reagent (Invitrogen, Thermo Fisher Scientific). An equal amount ([…]) of mRNA was reverse-transcribed into cDNA using the reverse transcriptase enzyme (Invitrogen, Thermo Fisher Scientific). qPCR was performed from the diluted cDNA templates with forward and reverse primers (Supplemental Table 4) and SYBR Green PCR Master Mix (Applied Biosystems, Thermo Fisher Scientific) using an Applied Biosystems 7300 real-time PCR machine. Mouse β-actin served as an internal control gene for normalization. Relative expression of mRNA was represented as fold change in comparison with the sham group.
BMDNs (1 × 10^6) were treated with eCIRP (1 μg/mL) for 12 hours, and DLL1, DLL3, and DLL4 were analyzed by qPCR.

Row | Molecule | effect on p-MLKL (p-MLKL; 10 μM NDI, DLL4^+ neutrophil coculture) | p-MLKL/MLKL (Figure 4I) (p-MLKL; DLL4^+ neutrophil coculture) | p-MLKL/MLKL (Figure 4I) (p-MLKL; DLL4^– neutrophil coculture) | lung ZBP1 mRNA (Figure 5A) (ZBP1; DLL4^+ neutrophils i.v. + CLP) | effect on lung ZBP1 mRNA (ZBP1; DLL4^+ neutrophils/sepsis, 10 mg/kg NDI) | lung ZBP1 mRNA (Figure 5A) (ZBP1; DLL4^– neutrophils + CLP) | effect on DLL4 expression (DLL4; BMDNs, eCIRP 1 μg/mL, 12 h) | DLL4 mRNA (DLL4; replicate 1) | DLL4 mRNA (DLL4; replicate 2) | DLL4 mRNA (DLL4; replicate 3) | DLL4 mRNA (DLL4; replicate 4) | DLL4 mRNA (DLL4; replicate 5) | DLL4 mRNA (DLL4; replicate 6) | DLL4 mRNA (DLL4; replicate 7) | DLL4 mRNA (DLL4; replicate 8)
1 | ECAGSPCHNGGTCEDGI [NDI] | significantly reduced these markers of PANoptosis | 1.115 and 1.398 and 1.246 and 1.299 and 0.9429 and 1.577 and 2.352 | 0.4818 and 0.8655 and 0.6799 and 0.9484 | 2.489 fold change and 2.951 fold change and 0.6537 fold change and 1.296 fold change and 1.101 fold change and 2.543 fold change and 1.904 fold change and 2.345 fold change and 0.6068 fold change and 1.613 fold change and 2.244 fold change and 2.348 fold change and 0.6906 fold change | effectively decreased ZBP1 expression | 3.779 fold change and 3.701 fold change and 3.374 fold change and 2.776 fold change and 2.9508 fold change and 2.383 fold change and 4.109 fold change and 2.422 fold change |  |  |  |  |  |  |  |  | 
2 | eCIRP: extracellular cold-inducible RNA-binding protein; recombinant murine, produced in our laboratory (protein, UniProt P60824 1-172, looked up) Cold-inducible RNA-binding …: MASDEGKLFVGGLSFDTNEQALEQVFSKYGQISEVVVVKDRETQRSRGFGFVTFENIDDAKDAMMAMNGKSVDGRQIRVDQAGKSSDNRSRGYRGGSAGGRGFFRGGRSRGRGFSRGGGDRGYGGGRFESRSGGYGGSRDYYASRSQGGSYGYRSSGGSYRDSYDSYATHNE |  |  |  |  |  |  | selectively upregulated DLL4 | 2.784 | 1.987 | 1.949 | 2.578 | 2.145 | 5.912 | 4.801 | 3.122
